Values quoted from earlier work, collected in US20140295424.

System: IgE (human myeloma IgE) (Homo sapiens)
Conditions: CITED; KD stated for purchased aptamer D17.4, no measurement described; cited from earlier work

Sequence: GCCTGTTGTGAGCCTCCTGTCGAAGCACGTTTATCCGTCCCTCCTAGTGGCGTGCTTGAGCGTTTATTCTTGTCTCCC [IgE aptamer D17.4]
- Kd: 10 nM
